The source of these data is the supplement of paper PMC12042874.

± gives the uncertainty stated by the source.

A short description of the data set: amyloid nucleation score (Sup35N fusion, yeast selection) (log enrichment); library NNK2; higher = more nucleation; inactive = no reads after selection. The procedure, abridged: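 Plasmid inserts were Illumina-sequenced at input and output from psi-negative yeast expressing Sup35N fused to peptides of 20 random codons. The yeast were induced with 100 μM copper sulfate for 24 hours and grown 7 days at 30°C on medium lacking adenine and uracil, and sequences with under 100 input reads were excluded. Nucleation score is the DiMSum log enrichment of output over input reads, centred on the mode score of non-aggregating sequences.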
Take STLVDGGTGYMCYFFAWHQS: the amyloid nucleation score entry is “inactive”.

In turn, CSGSLHERQYVRYDEVRRVG returned an amyloid nucleation score of -0.031 ± 0.55.

FTYRPISRNM showed an amyloid nucleation score of 4.99 ± 0.076.

Consider NSPMSKSLNRT, for which the amyloid nucleation score was determined as 0.347 ± 0.22.

On to GFTLEAKDWSTG, for which the amyloid nucleation score was 0.778 ± 0.43.

For the substance IKKGRWAYGPSLVCKNAMRE, the amyloid nucleation score came to 0.799 ± 0.74.

ESRGSCSIKNYRLVWDC came in with an amyloid nucleation score of -0.451 ± 0.74.

With SVNWTRLRECKPWMQVFNRG, the amyloid nucleation score is 0.208 ± 0.56.

As for WWFLIYLSSYRGNRCILVWF, the amyloid nucleation score was -1.98 ± 0.44.

Substance WCLMVGFMFMCRYDGNQSDG registered an amyloid nucleation score of 2.98 ± 0.051.

With RSLGVSAL, the amyloid nucleation score entry is “inactive”.

In the case of CLNCI, the amyloid nucleation score was -0.497 ± 1.

Take HVVVDSSVVAGCFTVFCRGI: the amyloid nucleation score was determined as 8.265 ± 0.046.

As for GNKMGCLFIGYCGFCTTVRP, the amyloid nucleation score turned out to be 1.74 ± 0.15.

For ATVSDYKVHGSDLFSFTVND, the amyloid nucleation score came to 8.299 ± 0.058.

As for WFYKVSSA, the amyloid nucleation score is -0.481 ± 0.55.

For RVFFTVCGMHTGSSKKLAGL, the amyloid nucleation score was found to be 1.23 ± 0.21.

Substance SLMWDGANLYCMMVYSSVRN had an amyloid nucleation score of 0.182 ± 1.1.

Consider NMFLFLCVRVCGVAFDKGKV, for which the amyloid nucleation score came to 2.28 ± 0.13.

In turn, LLFIICTDSFRLPTANGELY registered an amyloid nucleation score of -1.17 ± 0.41.

For NRDVRCGVRPQHVCFQ, the amyloid nucleation score result is “inactive”.

CDLIASQSVIAIVNIMIRHV came in with an amyloid nucleation score of 6.63 ± 0.062.

In turn, NSRLEVGSNSKQDLMAMSKT returned an amyloid nucleation score of -1.12 ± 0.74.

For the substance RLCLRDQYSFGQIVDYKCFD, the amyloid nucleation score entry was “inactive”.

KPFFEKFVSTLGLWFEQLKS: the amyloid nucleation score was -0.574 ± 0.42.

In turn, LIYITVGRLQHGALCFLGKC registered an amyloid nucleation score of 0.148 ± 1.

With VPSQASGTRACKHNWTVWLE, the amyloid nucleation score came out at 1.33 ± 0.25.

For the substance YDVSFTFLWW, the amyloid nucleation score was found to be 0.242 ± 0.61.

With SLYLNKSSSSGRIQLYGLFT, the amyloid nucleation score came to 0.049 ± 1.1.

Turning to FNGLSSFSFMLIGTGFDISC, the amyloid nucleation score was -0.934 ± 0.64.

In the case of RVFRCYRIIYMVMI, the amyloid nucleation score was 0.204 ± 0.19.

On to WVWRIRDCLIVSSTPTGMRV, for which the amyloid nucleation score stood at 0.806 ± 0.27.

FAPCNCSCVK: the amyloid nucleation score is 0.827 ± 0.58.

Consider FMLRTAQSHISSTVTSVKQA, for which the amyloid nucleation score was found to be 0.064 ± 0.4.

The substance SSRTMRFNVRG gave an amyloid nucleation score of 0.722 ± 0.26.

WQRMDGIGELILMCCRYSFL displayed an amyloid nucleation score of 5.819 ± 0.033.

Substance SSCGYLKTTFSKLSEAHCYR gave an amyloid nucleation score of -1.45 ± 1.1.

VCVLKGDGGL came in with an amyloid nucleation score of 0.339 ± 0.55.

Substance TRSHLFGYSVMGSSLIDSLY gave an amyloid nucleation score of -1.24 ± 0.79.

As to IYYLRLWSM, the amyloid nucleation score entry is “inactive”.

Regarding NLYMPDS, the amyloid nucleation score worked out at 0.395 ± 0.8.

PSYDVCSMDCLDEKDGFMWL displayed an amyloid nucleation score of 0.25 ± 0.62.

As for WEIRNAYVQVT, the amyloid nucleation score is -0.178 ± 0.39.

As for SVLAFKSFGSHCIGYIYVNL, the amyloid nucleation score result is “inactive”.

WSVWVRDSGSRMS had an amyloid nucleation score of 1.22 ± 0.13.

ITYLWYISVLYREMPLCCAS: the amyloid nucleation score amounted to 0.237 ± 0.25.

The substance VKINSTDMSMVQNCNYLIWV came in with an amyloid nucleation score of -0.531 ± 1.1.

In turn, YAQQIVVLVAGPWWSWTRRG registered an amyloid nucleation score of 0.791 ± 0.81.

The substance YANDFLRLVHVWFREVIIKL had an amyloid nucleation score of -0.398 ± 1.

In the case of TSLMRYIPMGHLKAWIFLSI, the amyloid nucleation score worked out at 0.049 ± 1.1.

Turning to GWTKLFGVHDSGIGCPNGVL, the amyloid nucleation score entry is “inactive”.

Take ILNYSWALRVIDFTHRKVFS: the amyloid nucleation score is -0.376 ± 0.2.

Consider GVPYFLRW, for which the amyloid nucleation score was -1.32 ± 0.48.

On to NGFNYFKMW, for which the amyloid nucleation score was -1.65 ± 1.1.

Substance QDVFCLSGLNSHCK gave an amyloid nucleation score of -1.45 ± 0.78.

As to FVRVCLSVIRYFTVTPGFKD, the amyloid nucleation score result was “inactive”.

VGLSPSSASTHLRN gave an amyloid nucleation score of 1.07 ± 0.33.

On to NGDLCILLTWATWGSTE, for which the amyloid nucleation score was 0.686 ± 0.33.

Substance LWVSSSLSL gave an amyloid nucleation score of -0.74 ± 0.45.

In the case of RDGYRSGYAESMVGVWFRLK, the amyloid nucleation score was determined as 0.662 ± 0.81.

On to SDERSGFRTSVRG, for which the amyloid nucleation score stood at 0.479 ± 0.29.

In the case of YSWSRVKFNSL, the amyloid nucleation score turned out to be 2.53 ± 0.076.

Regarding CPHGCIQTARYQQ, the amyloid nucleation score was determined as 1.19 ± 0.42.

Turning to LVQMLVSV, the amyloid nucleation score was -0.342 ± 1.

For FFDYIGRYYNLKH, the amyloid nucleation score result was “inactive”.

For the substance FRKSFHIYIVELYMDDHPLM, the amyloid nucleation score result was “inactive”.

In turn, STTHHARRFVSHESACLGAV showed an amyloid nucleation score of 1.11 ± 0.17.

With RTLFSRFYRRSMFNLSVKKK, the amyloid nucleation score entry is “inactive”.

FLMYK gave an amyloid nucleation score of -0.75 ± 0.76.

Regarding MSILTCVPGTNIINSQW, the amyloid nucleation score entry is “inactive”.

Regarding FGLDYVTYVRWAGVCHLLYF, the amyloid nucleation score is -0.56 ± 0.55.

Substance IWTTYFMGLRT had an amyloid nucleation score of -0.394 ± 0.78.

CLSCANL: the amyloid nucleation score was 0.486 ± 0.66.

For the substance VAYYEDVLSSYFIERW, the amyloid nucleation score was -0.392 ± 0.29.

DRGYKSYGG yielded an amyloid nucleation score of 0.775 ± 0.74.

Turning to YKTFFLVASAKVNEAPGQRG, the amyloid nucleation score entry is “inactive”.

In turn, SCDVTHGGLRQSKHGSGESG registered an amyloid nucleation score of 7.7 ± 0.083.

TMSFFLGSLEVL: the amyloid nucleation score was -1.09 ± 0.48.

LLRAT: the amyloid nucleation score is 0.598 ± 0.23.

Substance NSNGEFIKGACHMVRLFGLQ displayed an amyloid nucleation score of 0.098 ± 1.

Take LGTNMAMVGSN: the amyloid nucleation score was -0.623 ± 0.27.

SSLNHNPGWTEIYELHLVGF registered an amyloid nucleation score of 0.27 ± 0.8.

Regarding IQKVVIVYSHDVYSDQ, the amyloid nucleation score was 6.737 ± 0.048.

For the substance LLLGTSVDVFL, the amyloid nucleation score is 0.07 ± 0.74.

Turning to ITQRFKTWRCGGGDEVRQAN, the amyloid nucleation score was found to be 0.239 ± 0.49.

SWCLKRRTPHFVQVYHRNND returned an amyloid nucleation score of -0.095 ± 0.26.

IQTHSSSWG returned an amyloid nucleation score of -0.288 ± 1.

In turn, CFPPFLC displayed an amyloid nucleation score of 0.13 ± 1.1.

As for YRTCNIDGL, the amyloid nucleation score entry was “inactive”.

SFNVSTMRLQIVSVLRKSRR returned an amyloid nucleation score of 0.236 ± 1.1.

Consider IVLSDSISQAFWASICHQGF, for which the amyloid nucleation score was -1.55 ± 1.1.

HHSELFIIITYFG showed an amyloid nucleation score of 0.206 ± 0.5.

On to PIKYIVFSVLSCRRCLGNSM, for which the amyloid nucleation score was 0.651 ± 0.48.

In the case of QYGCMEYRHNKCNQREVCRY, the amyloid nucleation score came to 0.281 ± 0.5.

As to FFFDDSKVYQNWEEDVEGNQ, the amyloid nucleation score was -0.389 ± 0.34.

Substance YKLGVKPMKAG yielded an amyloid nucleation score of -0.224 ± 0.79.

In turn, TDYGLVALSQWKRVCLIQSG showed an amyloid nucleation score of 0.176 ± 0.22.

The substance GLTVHTVWLA gave an amyloid nucleation score of 0.189 ± 0.4.

VTCCVTSEWVGFLDWWSDRQ had an amyloid nucleation score of 10.13 ± 0.043.

For the substance WIVRFSGCCDVGWTSGVRSY, the amyloid nucleation score turned out to be 6.17 ± 0.075.

Take GVIWTRAVANCIVLSGMS: the amyloid nucleation score was -0.149 ± 0.55.

ILEACREAARPAITFSFFTK returned an amyloid nucleation score of -1.04 ± 1.1.

For CRIFDTVSMLNSFYHGH, the amyloid nucleation score entry was “inactive”.

Turning to QCMTKKLEISQY, the amyloid nucleation score is -0.492 ± 1.

The substance SMLRY gave an amyloid nucleation score of 0.171 ± 0.6.

As to CHGRGISYQLLQNRNQQP, the amyloid nucleation score stood at 0.08 ± 0.79.

Substance NCGLWNISMCPGDNLSSWDG had an amyloid nucleation score of 7.46 ± 0.039.

AHCVRVLHIKSRMVVSWESR yielded an amyloid nucleation score of 4.19 ± 0.099.

Substance LYDFCVSYVSQNGLRLFVRT came in with an amyloid nucleation score of -0.727 ± 0.45.

Substance GACGVSEVMHRVVFRGRLKR returned an amyloid nucleation score of 0.4 ± 0.39.

RIEDFF yielded an amyloid nucleation score of 1.19 ± 0.68.

Substance VVCEASTCDMLESEWFWAEF gave an amyloid nucleation score of 0.226 ± 0.23.

With IQRPADRIQHMTMWHTQDLV, the amyloid nucleation score worked out at 1.14 ± 0.37.

Regarding NIQDLARSLDRDWTYIGIES, the amyloid nucleation score was 3.65 ± 0.079.

Turning to GRKISNCCQCWCHGL, the amyloid nucleation score amounted to 7.72 ± 0.042.

For the substance RARLKTMRPGSCSRARGWCG, the amyloid nucleation score is 0.883 ± 0.33.

The substance KMMLSTRSQYPS gave an amyloid nucleation score of 0.489 ± 0.36.

The substance RSKDYVFFCFSCTNWLC displayed an amyloid nucleation score of 8 ± 0.082.

For TVPGNEEV, the amyloid nucleation score turned out to be 0.028 ± 0.53.

SLSVSTAVIVITLTNGEFIG returned an amyloid nucleation score of 2.64 ± 0.1.

For the substance NRKSSHYSKNCRTLLHTS, the amyloid nucleation score was -0.097 ± 1.1.

In the case of DKCDMTSTIVSLLVSTPKWS, the amyloid nucleation score is -0.142 ± 0.34.

Regarding VVAVVPYFN, the amyloid nucleation score was -0.202 ± 1.1.

As to FSHFAPWLSSDLCMWSCYLG, the amyloid nucleation score came to 5.269 ± 0.041.

GEGHWNYLLASFCNHGMCYF registered an amyloid nucleation score of 7.471 ± 0.029.

As for FRYIKPTCSFICLVRFVGDF, the amyloid nucleation score is -0.833 ± 1.

For ISIVYNSAMSIHHDFLILLC, the amyloid nucleation score stood at 5.32 ± 0.094.

On to ISGTHLCSRFYIRYALCGLK, for which the amyloid nucleation score came out at 4.66 ± 0.079.

In turn, RCNQLIWTASDNWYYMWTTV had an amyloid nucleation score of 1.8 ± 0.1.

In turn, APLNLSFIHPTFIWLYCLLG showed an amyloid nucleation score of 4.27 ± 0.05.

On to IFAGIHWNGQSAFLVFKCHI, for which the amyloid nucleation score entry was “inactive”.

Regarding NNNFMRTR, the amyloid nucleation score stood at 2.44 ± 0.066.

MRWSYFDH registered an amyloid nucleation score of 0.921 ± 0.47.

VHLSKDLCYLLSGYGYFPCF yielded an amyloid nucleation score of -0.216 ± 0.36.

As to RRGENIDESVRVVEWGVDVM, the amyloid nucleation score was 0.64 ± 0.47.

For GDSFLWTHS, the amyloid nucleation score is -0.994 ± 0.62.

In turn, YTGHFTSC displayed an amyloid nucleation score of -0.496 ± 0.48.

The substance LLIINIEMYRCNRLLYIDNN gave an amyloid nucleation score of 3.15 ± 0.097.

LMIVKMTMFDATGHVGFLMV gave an amyloid nucleation score of 2.82 ± 0.071.

In turn, FLYNFSHIRFVMYNRNESCF yielded an amyloid nucleation score of 3.48 ± 0.13.

Substance PGIMNVPS gave an amyloid nucleation score of 0.456 ± 0.32.
